Sequences and labels used below:
B1: 2126-Hu-H40 (antibody, IgG1, V domains shown)
VH: QVQLVQSGSELKKPGASVKVSCKASGYTFTDYSMHWVRQAPGQGLEWMGWINTETGEPTYADDFKGRFVFSRDTSVSTAYLQISSLKAEDTAVYFCVRVGRYDYAMDYWGQGTTVTVSS
VL: DIQMTQSPSSLSASVGDRVTITCKASQDVYTAVAWYQQKPGKAPKLLINSASYRYTGVPSRFSGSGSGTDFTLTISSLQPEDFATYYCQQHYSTPPTFGGGTKVEIK
notes: IgG1/Cκ
B2: 2126-Hu-H61 (antibody, IgG1, V domains shown)
VH: B1 VH with R72L, M106F
VL: B1 VL
notes: IgG1/Cκ
B3: 2126-Hu-H56 (antibody, IgG1, name in Kabat numbering, V domains shown)
VH: B1 VH with R72L, D103E
VL: B1 VL
notes: IgG1/Cκ
B4: 2126-Hu-L02 (antibody, IgG1, V domains shown)
VH: B1 VH with R72L
VL: B1 VL with K24R
notes: IgG1/Cκ
B5: 2126-Hu-H57 (antibody, IgG1, name in Kabat numbering, V domains shown)
VH: B1 VH with R72L, D103G
VL: B1 VL
notes: IgG1/Cκ
B6: 2126-Hu-H52 (antibody, IgG1, name in Kabat numbering, V domains shown)
VH: B1 VH with R72L, Y102S
VL: B1 VL
notes: IgG1/Cκ
B7: 2126-Hu-H59 (antibody, IgG1, V domains shown)
VH: B1 VH with R72L, D103S
VL: B1 VL
notes: IgG1/Cκ
B8: 2126-Hu-L01 (antibody, IgG1, V domains shown)
VH: B1 VH with R72L
VL: B1 VL with D28S
notes: IgG1/Cκ
B9: 2126-Hu-H48 (antibody, IgG1, name in Kabat numbering, V domains shown)
VH: B1 VH with R72L, R101K
VL: B1 VL
notes: IgG1/Cκ
B10: 2126-Hu-H45 (antibody, IgG1, V domains shown)
VH: B1 VH with R72L, I83M
VL: B1 VL
notes: IgG1/Cκ
B11: 2126-Hu-H53 (antibody, IgG1, name in Kabat numbering, V domains shown)
VH: B1 VH with R72L, Y102N
VL: B1 VL
notes: IgG1/Cκ
B12: 2126-Hu-H50 (antibody, IgG1, V domains shown)
VH: B1 VH with R72L, R101Y
VL: B1 VL
notes: IgG1/Cκ
B13: 2126-Hu-H46 (antibody, IgG1, V domains shown)
VH: B1 VH with R72L, F95Y
VL: B1 VL
notes: IgG1/Cκ
B14: 2126-Hu-H58 (antibody, IgG1, name in Kabat numbering, V domains shown)
VH: B1 VH with R72L, D103Q
VL: B1 VL
notes: IgG1/Cκ
B15: 2126-Hu-H55 (antibody, IgG1, name in Kabat numbering, V domains shown)
VH: B1 VH with R72L, D103A
VL: B1 VL
notes: IgG1/Cκ
B16: 2126-Hu-L03 (antibody, IgG1, V domains shown)
VH: B1 VH with R72L
VL: B1 VL with Y30S
notes: IgG1/Cκ
B17: 2126-Hu-H44 (antibody, IgG1, V domains shown)
VH: B1 VH with R72L, I83L
VL: B1 VL
notes: IgG1/Cκ
B18: 2126-Hu-H49 (antibody, IgG1, name in Kabat numbering, V domains shown)
VH: B1 VH with R72L, R101N
VL: B1 VL
notes: IgG1/Cκ
B19: 2126-Hu-H54 (antibody, IgG1, V domains shown)
VH: B1 VH with R72L, Y102G
VL: B1 VL
notes: IgG1/Cκ
B20: 2126-Hu-H60 (antibody, IgG1, name in Kabat numbering, V domains shown)
VH: B1 VH with R72L, D103Y
VL: B1 VL
notes: IgG1/Cκ
B21: 2126-Hu-H47 (antibody, IgG1, name in Kabat numbering, V domains shown)
VH: B1 VH with R72L, R101F
VL: B1 VL
notes: IgG1/Cκ
B22: 2126-Hu-H51 (antibody, IgG1, name in Kabat numbering, V domains shown)
VH: B1 VH with R72L, Y102F
VL: B1 VL
notes: IgG1/Cκ
B23: 2126-Hu-H43 (antibody, IgG1, V domains shown)
VH: B1 VH with R72L, V76T
VL: B1 VL
notes: IgG1/Cκ
B24: 2126-Hu-H42 (antibody, IgG1, V domains shown)
VH: B1 VH with R72L, V76K
VL: B1 VL
notes: IgG1/Cκ

Positions count from the first letter of the chain named.

The test deals with T1, recombinant human HER2 extracellular domain protein (human, UniProt P04626 23-652).
T1 construct: range 23-652; Range is printed for the immunogen/panning protein; also called ErbB2; recombinant HER2 protein
Nature of the test: BLI, Protein A capture. (In general: Biolayer interferometry detects binding as a change in optical thickness at a sensor tip.)
For orientation: Kd means the concentration at which binding is half-saturated. By koff is commonly meant a measure of how fast the partners let go of each other. The term kon denotes the second-order rate constant of association. As for B1, the Kd was 1.92 nM, the koff was determined as 0.0002 s⁻¹ and the kon stood at 104000 M⁻¹ s⁻¹.

For B2, the dissociation constant Kd amounted to 22 nM, the koff came out at 0.00201 s⁻¹ and the on-rate constant (kon) was determined as 91400 M⁻¹ s⁻¹.

For the molecule B3, the dissociation constant Kd amounted to 36.2 nM, the off-rate constant (koff) came out at 0.00476 s⁻¹ and the kon turned out to be 131000 M⁻¹ s⁻¹.

For the molecule B4, the Kd amounted to 5.58 nM, the off-rate constant (koff) stood at 0.000551 s⁻¹ and the kon was 98700 M⁻¹ s⁻¹.

For B5, the Kd amounted to 14.5 nM, the off-rate constant (koff) amounted to 0.00217 s⁻¹ and the kon was determined as 150000 M⁻¹ s⁻¹.

As to B6, the equilibrium dissociation constant (Kd) was 19.3 nM, the koff turned out to be 0.00292 s⁻¹ and the kon came to 152000 M⁻¹ s⁻¹.

On to B7, for which the Kd turned out to be 25.3 nM, the off-rate constant (koff) turned out to be 0.00287 s⁻¹ and the on-rate (kon) came out at 113000 M⁻¹ s⁻¹.

With B8, the Kd was found to be 17.5 nM, the koff was determined as 0.00195 s⁻¹ and the on-rate constant (kon) was 112000 M⁻¹ s⁻¹.

As to B9, the Kd came out at 34.1 nM, the dissociation rate constant (koff) was found to be 0.00392 s⁻¹ and the on-rate (kon) turned out to be 115000 M⁻¹ s⁻¹.

Consider B10, for which the Kd stood at 5.76 nM, the koff was 0.000598 s⁻¹ and the kon came out at 104000 M⁻¹ s⁻¹.

B11: the Kd was found to be 46.9 nM, the koff worked out at 0.00475 s⁻¹ and the on-rate (kon) turned out to be 101000 M⁻¹ s⁻¹.

For B12, the Kd amounted to 8 nM, the dissociation rate constant (koff) stood at 0.000902 s⁻¹ and the on-rate constant (kon) was 113000 M⁻¹ s⁻¹.

Consider B13, for which the Kd came out at 5.7 nM, the koff is 0.000597 s⁻¹ and the kon amounted to 105000 M⁻¹ s⁻¹.

For the molecule B14, the Kd was found to be 26.3 nM, the dissociation rate constant (koff) was 0.00409 s⁻¹ and the kon is 155000 M⁻¹ s⁻¹.

As to B15, the equilibrium dissociation constant (Kd) was 33.7 nM, the koff amounted to 0.00452 s⁻¹ and the on-rate (kon) was 134000 M⁻¹ s⁻¹.

For B16, the equilibrium dissociation constant (Kd) turned out to be 39.5 nM, the koff turned out to be 0.00186 s⁻¹ and the kon is 47100 M⁻¹ s⁻¹.

For the molecule B17, the dissociation constant Kd amounted to 5.3 nM, the dissociation rate constant (koff) was determined as 0.000562 s⁻¹ and the association rate constant (kon) was determined as 106000 M⁻¹ s⁻¹.

Regarding B18, the equilibrium dissociation constant (Kd) stood at 35.9 nM, the koff was 0.00533 s⁻¹ and the on-rate (kon) was determined as 149000 M⁻¹ s⁻¹.

In the case of B19, the Kd worked out at 7.96 nM, the koff came out at 0.000936 s⁻¹ and the kon is 118000 M⁻¹ s⁻¹.

In the case of B20, the Kd is 23.8 nM, the dissociation rate constant (koff) was 0.00361 s⁻¹ and the association rate constant (kon) stood at 152000 M⁻¹ s⁻¹.

Regarding B21, the equilibrium dissociation constant (Kd) stood at 17.8 nM, the koff stood at 0.00362 s⁻¹ and the kon stood at 204000 M⁻¹ s⁻¹.

As to B22, the Kd came out at 23.8 nM, the off-rate (koff) is 0.00244 s⁻¹ and the kon was 103000 M⁻¹ s⁻¹.

For the molecule B23, the Kd stood at 7.2 nM and the kon stood at 107000 M⁻¹ s⁻¹.

Regarding B24, the Kd was 5.11 nM, the koff was 0.000546 s⁻¹ and the kon stood at 107000 M⁻¹ s⁻¹.
